According to patent US20120225060A1 (APEXIGEN, published 2012):
Read-outs that look alike come from different tables or passages of the source.

T1: IL-6R on human myeloma U266B1 cells (human, UniProt P08887 20-468)
T1 sequence (looked up): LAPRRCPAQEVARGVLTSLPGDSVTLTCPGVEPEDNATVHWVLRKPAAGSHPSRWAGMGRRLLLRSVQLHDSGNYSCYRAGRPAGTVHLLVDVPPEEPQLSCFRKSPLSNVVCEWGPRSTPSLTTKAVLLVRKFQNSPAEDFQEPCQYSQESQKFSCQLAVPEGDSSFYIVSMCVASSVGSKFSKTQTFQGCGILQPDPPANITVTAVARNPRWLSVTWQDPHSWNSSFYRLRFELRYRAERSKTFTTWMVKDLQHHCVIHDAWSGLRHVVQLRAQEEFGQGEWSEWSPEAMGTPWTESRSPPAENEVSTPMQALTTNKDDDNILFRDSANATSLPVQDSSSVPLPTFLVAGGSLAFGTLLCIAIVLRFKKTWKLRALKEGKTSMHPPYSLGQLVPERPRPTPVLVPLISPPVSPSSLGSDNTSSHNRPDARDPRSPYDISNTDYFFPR

T2: recombinant human IL-6R-extracellular domain (ECD) (human, UniProt P08887 20-365)
T2 construct: extracellular domain; also called IL-6R-ECD
T2 sequence (looked up): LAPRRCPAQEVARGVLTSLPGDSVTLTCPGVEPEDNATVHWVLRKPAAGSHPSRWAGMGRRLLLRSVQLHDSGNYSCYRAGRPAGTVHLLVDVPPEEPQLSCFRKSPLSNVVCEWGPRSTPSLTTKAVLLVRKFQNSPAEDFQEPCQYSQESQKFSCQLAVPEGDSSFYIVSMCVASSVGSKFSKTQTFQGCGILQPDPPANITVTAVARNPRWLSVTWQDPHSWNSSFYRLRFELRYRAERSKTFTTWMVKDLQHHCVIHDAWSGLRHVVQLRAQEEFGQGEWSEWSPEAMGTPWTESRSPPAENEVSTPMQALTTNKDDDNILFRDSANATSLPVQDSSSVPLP


What was measured:
[1] = molecular target: T1, IL-6R on human myeloma U266B1 cells; experiment: cell-based or functional assay
[2] = molecular target: T1, IL-6R on human myeloma U266B1 cells; experiment: FACS binding to IL-6R on U266B1 cells
[3] = molecular target: T2, recombinant human IL-6R-extracellular …; experiment: receptor-ligand ELISA, blocking of IL-6 binding to IL-6R
[4] = molecular target: T2, recombinant human IL-6R-extracellular …; experiment: direct ELISA on IL-6R
[5] = molecular target: T2, recombinant human IL-6R-extracellular …; experiment: receptor-ligand ELISA: blocking of IL-6 binding to IL-6R
IL-6R on TF-1 cells = IL-6R on TF-1 cells (Homo sapiens); experiment: cell-based or functional assay
[6] = molecular target: T2, recombinant human IL-6R-extracellular …; experiment: direct ELISA on IL-6R; remark: listed apart in the source
[7] = molecular target: T1, IL-6R on human myeloma U266B1 cells; experiment: FACS binding to IL-6R on U266B1 cells; remark: listed apart in the source
[8] = molecular target: T2, recombinant human IL-6R-extracellular …; experiment: SPR
[9] = molecular target: T1, IL-6R on human myeloma U266B1 cells; experiment: cell-based or functional assay; remark: listed apart in the source
[10] = molecular target: T1, IL-6R on human myeloma U266B1 cells; experiment: cell-based or functional assay; remark: listed apart in the source
[11] = molecular target: T2, recombinant human IL-6R-extracellular …; experiment: receptor-ligand ELISA, blocking of IL-6 binding to IL-6R; remark: listed apart in the source
[12] = molecular target: T2, recombinant human IL-6R-extracellular …; experiment: receptor-ligand ELISA, reference Tocilizumab
[13] = molecular target: T1, IL-6R on human myeloma U266B1 cells; experiment: FACS on U266B1 cells

| Binder | TF-1 proliferation IC50 [1] | EC50 [2] | IC50 [3] | EC50 [4] | IC50 (read off the curve) [5] | IC50 (read off the curve), IL-6 mediated TF-1 proliferation (IL-6R on TF-1 cells) | EC50 [6] | EC50 [7] | Kd [8] | koff [8] | kon [8] | TF-1 proliferation IC50 [9] | inhibition of STAT3 phosphorylation, fold as compared to tocilizumab (hPM-1) [10] | IC50 [11] | fold potency against Tocilizumab in ligand-receptor binding assays [12] | EC50 (read off the curve) [13] |
| --- | --- | --- | --- | --- | --- | --- | --- | --- | --- | --- | --- | --- | --- | --- | --- | --- |
| clone 21 rabbit anti-IL-6R antibody (antibody, V domains shown) VH: QSVEESGGRLVTPGTPLTLTCTVSGIDLSNYYMSWVRQAPGKGLEWIGISSTTSNTFYASWAKGRFTISKTSATVDLKITSPTTEDTATYFCARYGGNSAYYAFSLWGQGTLVTVSS VL: AVVLTQTPSPVSAAVGGTVTINCQSSQSVYNNNYLAWYQQKPGQPPKLLIYGASNLASGVPSRFKGSGSGTQFTLTISEVQCDDAATYYCQGYYNGVIFVFGGGTEVVVK | 0.11 µg/mL | 0.0326 µg/mL | 0.47 µg/mL | 0.04 µg/mL |  |  |  |  |  |  |  |  |  |  |  |  |
| clone 36 rabbit anti-IL-6R antibody (antibody, V domains shown) VH: QSVEESGGRLVTPGTPLTLTCTVSGFSLSSYYMSWVRQAPGKGLEWIGITTTSTNTFYASWAKGRFTISKTSATVDLKITSPTIEDTATYFCARYGGNSAYYAFSLWGQGTLVTVSS VL: QVLTQTASSVSAAVGGTVTISCQSSQSVYNNNYLAWFQQKPGQPPKLLIYGASNLASGVPSRFKGSGSGTQFTLTISDLECDNAATYYCQGYYNGVIFVFGGGTEVVVK | 0.04 µg/mL | 0.0203 µg/mL | 0.23 µg/mL | 0.02 µg/mL | ~0.2 µg/mL | ~0.1 µg/mL | 0.0595 µg/mL | 0.0776 µg/mL | 635 pM | 0.000342 s⁻¹ | 538000 M⁻¹ s⁻¹ | 0.163 µg/mL | > 10 fold | 0.235 µg/mL |  |  |
| clone 5 rabbit anti-IL-6R antibody (antibody, V domains shown) VH: QSLEESGGRLVTPGTPLTLTCTVSGIDLSRYWMSWVRQAPGKGLEWIGMISGGNTWYASWAKGRFTISKTSTTVDLKITSPTTEDTATYFCARGIDTGIATTFNLWGPGTLVTVSS VL: AQVLTQTPSSVSAAVGGTVTISCQSSQSVYNNNRLSWFQQKPGQPPKLLIYYASTLASGVPSRFKGSGSGTQFTLTISDLECDDAATYYCQGYYSGVINVFGGGTEVVVK | 0.03 µg/mL | 0.0261 µg/mL | 0.38 µg/mL | 0.04 µg/mL |  |  |  |  | 523 pM | 0.000279 s⁻¹ | 533000 M⁻¹ s⁻¹ |  |  |  |  |  |
| clone 23 rabbit anti-IL-6R antibody (antibody, V domains shown) VH: QSLEESGGRLVTPGTPLTLTCTVSGIDLSRYWMSWVRQAPGKGLEWIGMISGGNTWYASWAKGRFTISKTSTTVDLKITSPTTEDTATYFCARGIDTGIATTFNLWGPGTLVTVSS VL: AQVLTQTPSSVSTAVGGTVTISCQSSQNVYNNNRLSWFQQKPGQPPKLLIYYTSTLPSGVPSRFKGSGSGTQFTLTISDLECDDAATYYCQGYYSGVINVFGGGTEVVVK | 0.07 µg/mL | 0.0263 µg/mL | 0.38 µg/mL | 0.07 µg/mL |  |  |  |  |  |  |  |  |  |  |  |  |
| clone 37 rabbit anti-IL-6R antibody (antibody, V domains shown) VH: QSLEESGGRLVTPGTPLTLTCTVSGIDLSRYWMSWVRQAPGKGLEWIGMISGGNTWYASWAKGRFTISGTSTTVDLKIISPTTADTATYFCARGIDTGIATTFNLWGPGTLVTVSS VL: AQVLTQTPSSVSAAVGGTVTISCQSSQSVYSNNRLSWFQQKPGQPPKLLIYYTSTLASGVPSRFKGSGSGTQFTLTISDLECDDAATYYCQGYYSGVINVFGGGTEVVVK | 0.09 µg/mL | 0.0331 µg/mL | 0.39 µg/mL | 0.05 µg/mL |  |  |  |  |  |  |  |  |  |  |  |  |
| clone 40 rabbit anti-IL-6R antibody (antibody, V domains shown) VH: QSLEESGGRLVSPGGSLTLTCTVSGVDLNTYAMGWVRQAPGKGLECIGVILGSGTTYYANWAKGRFTISKTSSTTVDLKMTNLTAADTATYFCAGDRYGSLEEVITPYFDLWGPGILVTVSS VL: DVVMTQTPASVEAAVGGTVTIKCQASQNIYNNLAWYQQKPAQPPKLLIYSASTLESGVPSRFKGSGSGTGYTLTISDLECADAATYYCQSAYYTSYIDHNVFGGGTEVVVE | 0.02 µg/mL | 0.0573 µg/mL | 1.36 µg/mL | 0.02 µg/mL |  |  |  |  |  |  |  |  |  |  |  |  |

Second part, the binder after the results:

| TF-1 proliferation IC50 [1] | EC50 [2] | IC50 [3] | EC50 [4] | IC50 (read off the curve) [5] | IC50 (read off the curve), IL-6 mediated TF-1 proliferation (IL-6R on TF-1 cells) | EC50 [6] | EC50 [7] | Kd [8] | koff [8] | kon [8] | TF-1 proliferation IC50 [9] | inhibition of STAT3 phosphorylation, fold as compared to tocilizumab (hPM-1) [10] | IC50 [11] | fold potency against Tocilizumab in ligand-receptor binding assays [12] | EC50 (read off the curve) [13] | Binder |
| --- | --- | --- | --- | --- | --- | --- | --- | --- | --- | --- | --- | --- | --- | --- | --- | --- |
|  |  |  |  | ~0.2 µg/mL |  | 0.0216 µg/mL | 0.145 µg/mL | 526 pM | 0.00031 s⁻¹ | 589000 M⁻¹ s⁻¹ | 0.181 µg/mL |  | 0.39 µg/mL | 6 fold |  | humanized clone #36 anti-IL-6R antibody (antibody, human IgG1, kappa, V domains shown, Humanized VH cloned into human IgG1 CH vector, humanized VK into human CK vector; also called Humanized 36; humanized 36) VH: EVQLVESGGGLVQPGGSLRLSCAVSGFSLSSYYMSWVRQAPGKGLEWIGITTTSTNTFYASWAKGRFTISKDSSKNTVYLQMNSPRAEDTAVYFCARYGGNSAYYAFSLWGQGTLVTVSS VL: DIQMTQSPSSLSASVGDRVTISCQSSQSVYNNNYLAWFQQKPGKPPKLLIYGASNLASGVPSRFSGSGSGTQFTLTISSLQPEDVATYYCQGYYNGVIFVFGGGTKVEIKR |
| 0.03 µg/mL | 0.0961 µg/mL | 0.34 µg/mL | 0.04 µg/mL |  |  |  |  |  |  |  |  |  |  |  |  | clone 42 rabbit anti-IL-6R antibody (antibody, V domains shown) VH: QSVEESGGRLVTPGTPLTLTCTVSGFSLSNYWMSWVRQAPGKGLEWIAFIGGGNTFYASWAKGRFTISKTSSTTVDLSMPSPTTEDTATYFCARGYGAPGYDLWGQGTLVTVSL VL: AIVMTQTPSSKSVPVGDTVTINCQASESVYTNNRLSWYQQKPGQPPKLLIYYASTLASGVPSRFKGSGSGTQFTLTISDVVCDNAATYYCVGYKSSDGDGTAFGGGTEVVVK |
| 0.02 µg/mL | 0.0687 µg/mL | 0.8 µg/mL | 0.03 µg/mL | ~0.3 µg/mL |  | ~0.03 µg/mL | 0.164 µg/mL | 1170 pM | 0.000463 s⁻¹ | 393000 M⁻¹ s⁻¹ | 0.154 µg/mL |  | 0.288 µg/mL |  | ~0.2 µg/mL | clone 51 rabbit anti-IL-6R antibody (antibody, V domains shown) VH: QSVEESGGRLVTPGTPLTLTCTASGFDISSYSLQWVRQSPGKGLEYIGFIRPDGSAHYATWAKGRFTISKTSSTTVDLKMTSLTTEDTATYFCARDDISSDYFPNLWGPGTLVTVSS VL: QVLTQTPSPVSAAVGGTVTISCQASESVYNKNNLAWYQQKPGQPPKLLIYDASDLASGVSSRFKGSGSGTQFTLTISDLECADAATYYCAGGGSGNVYDFGGGTEVVVK |
|  |  |  |  |  |  | 0.0169 µg/mL | 0.356 µg/mL | 1290 pM | 0.0004 s⁻¹ | 311000 M⁻¹ s⁻¹ | 1.06 µg/mL |  | 0.26 µg/mL |  |  | humanized clone #51 anti-IL-6R antibody (antibody, human IgG1, kappa, V domains shown, Humanized VH cloned into human IgG1 CH vector, humanized VK into human CK vector; also called Humanized 51; humanized 51) VH: EVQLVESGGGLVQPGGSLRLSCAASGFDISSYSLQWVRQSPGKGLEYIGFIRPDGSAHYATWAKGRFTISKDSSKNTVYLQMNSLRAEDTAVYFCARDDISSDYFPNLWGPGTLVTVSS VL: DIQMTQSPSTLSASVGDRVTISCQASESVYNKNNLAWYQQKPGKPPKLLIYDASDLASGVPSRFSGSGSGTQFTLTISSLQPDDFATYYCAGGGSGNVYDFGGGTKVEIKR |
